Experimental data published in the supplement of paper PMC10567573.

B1: ANKRD17 (parent)
chain: EMVRFLLEAGADQEHKTDEMHTAL

Variants of: B1
Assay: protein stability index of a GFP-peptide fusion (GPS, HEK-293T) (PSI 1-6); higher = more stable
Conditions: c terminus: a fixed tail appended
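Also: lentivirally expressed fusions sorted by FACS into six bins by GFP to DsRed ratio, PSI derived from sequencing read proportions per bin multiplied by bin number.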

Compared with EMVRFLLEAGADQEHWTDEMHTAL [K16W], EMVRFLLEAGADQEHLTDEMHTAL [K16L] is higher in protein stability index: 1.88 for the first, 3.11 for the second.

Compared with EMVRFLLEAGADQEHHTDEMHTAL [K16H], EMVRFLLEAGADQEHRTDEMHTAL [K16R] is lower in protein stability index: 2.87 for the first, 2.51 for the second.

Compared with EMVRFLLEAGADQAHKTDEMHTAL [E14A], EMVRFLLEAGADQLHKTDEMHTAL [E14L] is higher in protein stability index: 1.69 for the first, 1.79 for the second.

Compared with EMVRFLLEAGADQDHKTDEMHTAL [E14D], EMVRFLLEAGADQRHKTDEMHTAL [E14R] is lower in protein stability index: 2.61 for the first, 1.95 for the second.

Compared with EMVRFLLEAGADQEHKTDEMQTAL [H21Q], EMVRFLLEAGADQEHKTDEMLTAL [H21L] is lower in protein stability index: 3.55 for the first, 2.66 for the second.

First: EMVRFLLEAGADQEHKTDEMMTAL [H21M]
Second: EMVRFLLEAGADQEHKTDEMATAL [H21A]
The protein stability index of the first is higher: 3.25 for the first, 3.24 for the second.

Going from EMVRFSLEAGADQEHKTDEMHTAL [L6S] to EMVRFTLEAGADQEHKTDEMHTAL [L6T], the protein stability index falls from 4.69 to 4.62.

Compared with EMVRFLLEAGADQELKTDEMHTAL [H15L], EMVRFLLEAGADQEIKTDEMHTAL [H15I] is lower in protein stability index: 2.71 for the first, 2.56 for the second.

Going from EMVRFLLEAGADQEAKTDEMHTAL [H15A] to EMVRFLLEAGADQEGKTDEMHTAL [H15G], the protein stability index falls from 2.76 to 2.73.

Going from EMVRFLLEAGADQEMKTDEMHTAL [H15M] to EMVRFLLEAGADQEFKTDEMHTAL [H15F], the protein stability index falls from 2.42 to 1.94.

Going from EMVRFLLEAIADQEHKTDEMHTAL [G10I] to EMVRFLLEALADQEHKTDEMHTAL [G10L], the protein stability index falls from 1.98 to 1.95.

Going from EMVRFLLEARADQEHKTDEMHTAL [G10R] to EMVRFLLEAWADQEHKTDEMHTAL [G10W], the protein stability index rises from 1.67 to 2.2.

First: WMVRFLLEAGADQEHKTDEMHTAL [E1W]
Second: GMVRFLLEAGADQEHKTDEMHTAL [E1G]
The protein stability index of the first is lower: 2.05 for the first, 3.41 for the second.

Going from CMVRFLLEAGADQEHKTDEMHTAL [E1C] to EMVRFLLEAGAPQEHKTDEMHTAL [D12P], the protein stability index falls from 2.48 to 2.25.

First: EMVRFLLEAGAYQEHKTDEMHTAL [D12Y]
Second: EMVRFLLEAGAWQEHKTDEMHTAL [D12W]
The protein stability index of the first is higher: 1.89 for the first, 1.43 for the second.

Compared with ELVRFLLEAGADQEHKTDEMHTAL [M2L], EVVRFLLEAGADQEHKTDEMHTAL [M2V] is higher in protein stability index: 1.95 for the first, 2.73 for the second.

First: ECVRFLLEAGADQEHKTDEMHTAL [M2C]
Second: EGVRFLLEAGADQEHKTDEMHTAL [M2G]
The protein stability index of the first is lower: 3.4 for the first, 4.74 for the second.

First: EPVRFLLEAGADQEHKTDEMHTAL [M2P]
Second: EMVRFLLEAGADQEHKTLEMHTAL [D18L]
The protein stability index of the first is higher: 4.75 for the first, 1.7 for the second.

First: EMVRFLLEAGADQEHKTREMHTAL [D18R]
Second: EMVRFLLEAGADQEHKTYEMHTAL [D18Y]
The protein stability index of the first is higher: 2.1 for the first, 1.44 for the second.

Going from EMVRFLLVAGADQEHKTDEMHTAL [E8V] to EMVRFLLYAGADQEHKTDEMHTAL [E8Y], the protein stability index falls from 1.89 to 1.78.

Compared with EMVRFLLAAGADQEHKTDEMHTAL [E8A], EMVRFLLLAGADQEHKTDEMHTAL [E8L] is higher in protein stability index: 2.15 for the first, 2.52 for the second.

Compared with EMVRFLLCAGADQEHKTDEMHTAL [E8C], EMVRFLLWAGADQEHKTDEMHTAL [E8W] is lower in protein stability index: 2.14 for the first, 1.19 for the second.

Going from EMVRFLLFAGADQEHKTDEMHTAL [E8F] to EMKRFLLEAGADQEHKTDEMHTAL [V3K], the protein stability index rises from 1.94 to 4.2.

First: EMCRFLLEAGADQEHKTDEMHTAL [V3C]
Second: EMHRFLLEAGADQEHKTDEMHTAL [V3H]
The protein stability index of the first is lower: 3.84 for the first, 4.55 for the second.

First: EMSRFLLEAGADQEHKTDEMHTAL [V3S]
Second: EMFRFLLEAGADQEHKTDEMHTAL [V3F]
The protein stability index of the first is higher: 4.82 for the first, 2.97 for the second.

Compared with EMVRFLLEAGADDEHKTDEMHTAL [Q13D], EMVRFLLEAGADKEHKTDEMHTAL [Q13K] is lower in protein stability index: 3.77 for the first, 2.92 for the second.

First: EMVRFLLEAGADNEHKTDEMHTAL [Q13N]
Second: EMVRFLLEAGADCEHKTDEMHTAL [Q13C]
The protein stability index of the first is lower: 2.86 for the first, 3.28 for the second.

First: EMVRPLLEAGADQEHKTDEMHTAL [F5P]
Second: EMVRMLLEAGADQEHKTDEMHTAL [F5M]
The protein stability index of the first is higher: 4.91 for the first, 2.87 for the second.

First: EMVRILLEAGADQEHKTDEMHTAL [F5I]
Second: EMVRKLLEAGADQEHKTDEMHTAL [F5K]
The protein stability index of the first is lower: 2.88 for the first, 4.33 for the second.

Going from EMVRFLLEAGADQEHKTDAMHTAL [E19A] to EMVRFLLEAGADQEHKTDWMHTAL [E19W], the protein stability index falls from 2.33 to 1.43.

First: EMVRFLLEAGADQEHKTDCMHTAL [E19C]
Second: EMVRFLLEAGADQEHKTDDMHTAL [E19D]
The protein stability index of the first is lower: 1.54 for the first, 2.28 for the second.

Going from EMVRFLLEAGCDQEHKTDEMHTAL [A11C] to EMVRFLLEAGLDQEHKTDEMHTAL [A11L], the protein stability index falls from 2.57 to 2.04.

Compared with EMVSFLLEAGADQEHKTDEMHTAL [R4S], EMVHFLLEAGADQEHKTDEMHTAL [R4H] is lower in protein stability index: 3.64 for the first, 3.2 for the second.

Compared with EMVWFLLEAGADQEHKTDEMHTAL [R4W], EMVRFLLECGADQEHKTDEMHTAL [A9C] is higher in protein stability index: 2.08 for the first, 2.62 for the second.

Going from EMVRFLLEQGADQEHKTDEMHTAL [A9Q] to EMVRFLLEDGADQEHKTDEMHTAL [A9D], the protein stability index rises from 2.78 to 3.09.

Compared with EMVRFLLEWGADQEHKTDEMHTAL [A9W], EMVRFLLEAGADQEHKTDEMHCAL [T22C] is higher in protein stability index: 1.89 for the first, 2.2 for the second.

Going from EMVRFLLEAGADQEHKTDEMHSAL [T22S] to EMVRFLLEAGADQEHKTDEMHMAL [T22M], the protein stability index falls from 2.98 to 2.15.

First: EMVRFLLEAGADQEHKTDEMHIAL [T22I]
Second: EMVRFLLEAGADQEHKTDEMHTAY [L24Y]
The protein stability index of the first is lower: 1.93 for the first, 2.95 for the second.

Going from EMVRFLLEAGADQEHKTDEMHTAQ [L24Q] to EMVRFLLEAGADQEHKTDEMHTAD [L24D], the protein stability index rises from 3.14 to 4.06.

Compared with EMVRFLLEAGADQEHKTDEMHTAP [L24P], EMVRFLLEAGADQEHKTDEFHTAL [M20F] is higher in protein stability index: 2.4 for the first, 2.75 for the second.

First: EMVRFLLEAGADQEHKTDESHTAL [M20S]
Second: EMVRFLLEAGADQEHKTDEGHTAL [M20G]
The protein stability index of the first is higher: 3.45 for the first, 3.12 for the second.

First: EMVRFLLEAGADQEHKTDEHHTAL [M20H]
Second: EMVRFLLEAGADQEHKTDEWHTAL [M20W]
The protein stability index of the first is lower: 2.79 for the first, 2.82 for the second.

Compared with EMVRFLLEAGADQEHKTDEMHTKL [A23K], EMVRFLLEAGADQEHKTDEMHTCL [A23C] is lower in protein stability index: 2.76 for the first, 2.49 for the second.

Going from EMVRFLLEAGADQEHKTDEMHTEL [A23E] to EMVRFLLEAGADQEHKTDEMHTGL [A23G], the protein stability index falls from 2.91 to 2.72.

First: EMVRFLLEAGADQEHKTDEMHTSL [A23S]
Second: EMVRFLLEAGADQEHKWDEMHTAL [T17W]
The protein stability index of the first is higher: 3.05 for the first, 2.19 for the second.

EMVRFLLEAGADQEHKDDEMHTAL [T17D] and EMVRFLLEAGADQEHKKDEMHTAL [T17K] are the same in protein stability index: 3.12 for the first, 3.12 for the second.

Compared with EMVRFLLEAGADQEHKPDEMHTAL [T17P], EMVRFLMEAGADQEHKTDEMHTAL [L7M] is higher in protein stability index: 3.17 for the first, 3.4 for the second.

In the case of EMVRFLQEAGADQEHKTDEMHTAL [L7Q], the protein stability index is reported as 4.04.
